The results in this text go back to paper PMC3737563, “Investigation of DNA sequence recognition by a streptomycete MarR family transcriptional regulator through surface plasmon resonance and X-ray crystallography” (Nucleic Acids Research, 2013).

Series [1] concerns the molecule itself. Kind of series: not stated; purified SCO3205 in solution; the method is told only in the Supplementary Methods.
The target of series [2] is T1, SCO3205 (MarR family regulator) (Streptomyces coelicolor, UniProt Q9KYU1 1-163).
T1 sequence: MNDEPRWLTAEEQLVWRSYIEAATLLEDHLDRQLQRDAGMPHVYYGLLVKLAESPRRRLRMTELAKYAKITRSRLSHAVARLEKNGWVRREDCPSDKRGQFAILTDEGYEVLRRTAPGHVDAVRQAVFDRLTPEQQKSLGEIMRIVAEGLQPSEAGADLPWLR
Kind of series: crystal structure; 2.8 A; one dimer per duplex; SPR (ReDCaT, Biacore T200) in HBS-EP+: 10 mM HEPES pH 7.4, 150 mM NaCl, 3 mM EDTA, 0.05% P20, 20°C. The following applies: protein: recombinant; tags: N-terminal His tag plus TEV site, not removed; chain copies: 2; blunt; self-complementary, 2 copies. A general note: SPR reads the build-up and loss of mass on a sensor chip optically.

B1: SCO3205, MarR family transcriptional regulator from Streptomyces coelicolor (natural protein, UniProt Q9KYU1 1-163, looked up)
chain: MNDEPRWLTAEEQLVWRSYIEAATLLEDHLDRQLQRDAGMPHVYYGLLVKLAESPRRRLRMTELAKYAKITRSRLSHAVARLEKNGWVRREDCPSDKRGQFAILTDEGYEVLRRTAPGHVDAVRQAVFDRLTPEQQKSLGEIMRIVAEGLQPSEAGADLPWLR
notes: SCO3205, MarR family transcriptional regulator, Streptomyces coelicolor; the tag was not removed for any experiment; Total deduced molecular mass 20523 Da; also called MFR; source: E. coli BL21 (DE3), purified (HisTrap nickel column, Superdex 75 gel filtration); not shown: His tag, N-terminal, kept
As to B1, in series [1], the stoichiometry N (in general, a count of units in the complex or per binding partner) was 2.

B2: symmetrized O3204 22-mer (dsDNA)
DNA 1: AAAGATTGAGATCTCAATCTTT
DNA 2: AAAGATTGAGATCTCAATCTTT
As for B2, in series [2], the binding result is on record as “binds”.
